Molecular target: ribosomal binding factor A (RbfA) from Staphylococcus aureus, histidine tag at the N-terminus (S. aureus, UniProt A5ISF4 1-116)
Experiment: cryo-EM structure; 30S-RbfA complex reconstituted by mixing mature S. aureus 30S subunits and recombinant RbfA (1:30); overall resolution 2.9 Å
Details: both partners purified

B1: ribosomal protein S7 of the S. aureus 30S subunit (natural protein)
chain: MPRKGSVPKRDVLPDPIHNSKLVTKLINKIMLDGKRGTAQRILYSAFDLVEQRSGRDALEVFEEAINNIMPVLEVKARRVGGSNYQVPVEVRPERRTTLGLRWLVNYARLRGEKTMEDRLANEILDAANNTGGAVKKREDTHKMAEANKAFAHYRW
notes: 30S ribosomal protein S7, S. aureus RN6390; model built from the published S. aureus 30S (PDB 5ND8); Stood in the assay as part of the whole 30S subunit (16S rRNA and the other small subunit proteins; S21 and S1 not seen in the density); also called S7 head protein; source: endogenous, within 30S subunits obtained by dissociation of 70S ribosomes purified from S. aureus RN6390
- binding result: binds

Source: article PMC9917171, “Yet Another Similarity between Mitochondrial and Bacterial Ribosomal Small Subunit Biogenesis Obtained by Structural Characterization of RbfA from S. aureus” (International Journal of Molecular Sciences, 2023)
